The text below walks through data of US20240059757A1 (VIR BIOTECHNOLOGY, published 2024).

Where two headings read alike, the source gives them in different places. Where only a bound is given, the exact number is not on record here.

In experiment [1] the target is T1, SARS-CoV-2 RBD (residues 331-550 of spike from BetaCoV/Wuhan-Hu-1/2019, accession number MN908947) (SARS-CoV-2 Wuhan-Hu-1, UniProt P0DTC2 331-550). In words: BLI (Octet): antibody on Protein A pins, SARS-CoV-2 RBD at 6, 1.5 and 0.4 µg/ml. Background: In BLI a coated tip is dipped into the sample, and binding shifts an interference pattern.
Experiment [2] addresses T2, SARS-CoV-2 RBD-mouse Fc (Sino Biological) (SARS-CoV-2, UniProt P0DTC2 331-541).
Experiment [3] concerns the target T1, SARS-CoV-2 RBD (residues 331-550 of …).
For experiment [4] the target is unchanged. In words: ELISA, plate coated with SARS-CoV-2 RBD; antibodies as rIgG1-LS. (In general: ELISA stands for enzyme-linked immunosorbent assay.)
Experiment [5] shares this target. The experiment is described as follows: BLI (Octet): antibody on Protein A pins, SARS-CoV-2 RBD at 6, 1.5 and 0.4 µg/ml. This is another data set of the same source.
The target in experiment [6] is T2, SARS-CoV-2 RBD-mouse Fc (Sino …). This is another data set of the same source.
Experiment [7] addresses T3, SARS-CoV-2 Spike protein (SARS-CoV-2 Wuhan-Hu-1, UniProt P0DTC2 14-1273). In words: cell-based or functional assay.
In experiment [8] the target is T1, SARS-CoV-2 RBD (residues 331-550 of …). This is another data set of the same source.
Experiment [9] addresses T4, SARS-CoV RBD (Sino Biological) (SARS-CoV, UniProt P59594 306-527).
Experiment [10] addresses T3, SARS-CoV-2 Spike protein. The experiment is described as follows: cell-based or functional assay. This is another data set of the same source.
The target of experiment [11] is T5, SARS-CoV Spike protein (SARS-CoV, UniProt P59594 14-1255).
Experiment [12] has as its target T4, SARS-CoV RBD (Sino Biological). This is another data set of the same source.
Experiment [13] addresses T1, SARS-CoV-2 RBD (residues 331-550 of …). In words: BLI.
Experiment [14] addresses T4, SARS-CoV RBD (Sino Biological). In words: BLI.
Experiment [15] addresses T1, SARS-CoV-2 RBD (residues 331-550 of …). In words: ELISA.
For experiment [16], the target named is T4, SARS-CoV RBD (Sino Biological). The experiment is described as follows: ELISA.
In experiment [17] the target is T5, SARS-CoV Spike protein. In words: cell-based or functional assay.
Experiment [18] deals with T3, SARS-CoV-2 Spike protein. In words: cell-based or functional assay. This is another data set of the same source.
Experiment [19] deals with T1, SARS-CoV-2 RBD (residues 331-550 of …). In words: BLI. The source holds these as a separate data set.
The target of experiment [20] is T4, SARS-CoV RBD (Sino Biological). The experiment is described as follows: BLI. The source holds these as a separate data set.
Experiment [21] concerns the target T1, SARS-CoV-2 RBD (residues 331-550 of …). The source holds these as a separate data set.
Experiment [22] shares this target. This is another data set of the same source.
The target in experiment [23] is T5, SARS-CoV Spike protein. The experiment is described as follows: cell-based or functional assay. The source holds these as a separate data set.
Experiment [24] has as its target T1, SARS-CoV-2 RBD (residues 331-550 of …). This is another data set of the same source.
For experiment [25], the target named is T4, SARS-CoV RBD (Sino Biological). The source holds these as a separate data set.
For experiment [26], the target named is T3, SARS-CoV-2 Spike protein. The experiment is described as follows: cell-based or functional assay. This is another data set of the same source.
For experiment [27], the target named is T4, SARS-CoV RBD (Sino Biological). In words: ELISA. This is another data set of the same source.
The target in experiment [28] is T1, SARS-CoV-2 RBD (residues 331-550 of …). In words: ELISA, plate coated with SARS-CoV-2 RBD; antibodies as rIgG1-LS. This is another data set of the same source.
Experiment [29] has the same target. In words: ELISA, plate coated with SARS-CoV-2 RBD, OD405nm.

B1: S2X132 (antibody, V domains shown)
VH: EVQLVESGGGLVQPGGSLRLSCAASGFTVSSNYMSWVRQAPGKGLEWVSVIYSGGNTYYADSVKGRFTISRDNSKNTLYLQMISLRAEDTAVYYCARDRRLPSIIFGLDVWGQGTTVTVSS
VL: QSALTQPASVSGSPGQSITISCTGTSSDVGGNNHVSWYRQHPGKAPKLMIYEVSNRPSGVSNRFSGSKSGNTASLTISGLQAGDEADYYCSSFTTYTTDVVFGGGTKLTVL
One may read the Kd as the free concentration of one partner at which half of the binding sites on the other are occupied at equilibrium, for simple one-to-one binding. The term IC50 denotes the point on the concentration scale where inhibition reaches its midpoint. Low values mean greater potency, high ones weaker potency. B1: the affinity in experiment [1], expressed as Kd, was 709 pM. The same molecule displayed an IC50 in [2] of 0.0248 µg/mL.

B2: S2X200 (antibody, V domains shown)
VH: EVHLVESGGGLIQPGGSLRLSCAASGITVSSNYMSWVRQAPGKGLEWVSVIYSGGSTFYADSVKGRFTISRDNSKNTVYLQMNSLRAEDTAVYYCARDLVTYGMDVWGQGTTVTVSS
VL: EIVLTQSPSFLSASVGDRVTITCRASQGISSYLAWYQQKPGKAPKLLIYAASTLQSGVPSRFSGSGSGTEFTLTISSLQPEDFATYYCQQLNGDPPIFGHGTRLEIK
What is called EC50 is the midpoint of the concentration-response curve. For the molecule B2, the 50% effective concentration (EC50) in [3] worked out at 0.00151 µg/mL.

B3: S2D43 (antibody, V domains shown)
VH: QVTLKESGPTLVKPTQTLTLTCTFSGFSLSTSGVGVGWLRQPPGKALEWLALIYWDDDKRYSPSLKNRLTVTKDTSKNQVVLTMTNLDPVDTATYYCAHDNTLGGSSTWQSTFDYWGQGTLVTVSS
VL: QSVLTQPPSVSEAPRQRVTISCSGSNSNIGNNAVHWYQQLPGKAPKLLIYYDDLLPSGVSDRFSGSKSGTSASLAISGLQSEDEADYYCAAWDDRMNGPVFGGGTKLTVL
With B3, in experiment [4], the binding result is “binds”.

B4: S2X190 (antibody, V domains shown)
VH: EVQLVESGGGVVQPGRSLRLSCAASGFPFSTYGMHWVRQAPGKGLEWVAVIWYDGSTKYYADSVKGRFTISRDNSKNTLYLQMNSLRAEDTALYYCARVHSSGPGDEYFQHWGQGTLLTVSS
VL: DIVMTQSPSSLSASVGDRVTITCRASQGISSGLAWYQQKPGKGPKVLIYDASSLESGVPSRFSGSASGTDFTLTISSLQPEDFATYFCQQFYSYPLTFGGGTKVEIK
The molecule B4 showed a Kd in experiment [5] of 923 pM. The molecule also registered an IC50 in experiment [2] of 0.02 µg/mL.

B5: S2X259 (antibody, V domains shown)
VH: QVQLVQSGAEVKKPGSSVKVSCKASGGIFNTYTISWVRQAPGQGLEWMGRIILMSGMANYAQKIQGRVTITADKSTSTAYMELTSLRSDDTAVYYCARGFNGNYYGWGDDDAFDISGQGTLVTVYS
VL: QTVLTQPPSVSGAPGQRVTISCTGSNSNIGAGYDVHWYQQLPGTAPKLLICGNSNRPSGVPDRFSGSKSGTSASLAITGLQAEDEADYYCQSYDSSLSGPNWVFGGGTKLTVL
In general, EC50 (read off the curve) refers to the concentration giving half of the maximal effect. A high value points to a need for much substance. For B5, the IC50 in experiment [6] came to 0.0221 µg/mL; in experiment [8], 0.00921 µg/mL; in [9], 0.01 µg/mL. Moreover, the “neutralization IC50” value in experiment [7] turned out to be 0.231 µg/mL; in experiment [10], 0.184 µg/mL; in experiment [17] it was 0.189 µg/mL; in [18], 0.046 µg/mL; in experiment [23], 0.0806 µg/mL. Moreover, the EC50 in experiment [11] was 0.00215 µg/mL; in experiment [12], 0.00151 µg/mL; in experiment [15] it was 0.0343 µg/mL; in experiment [16], 0.0285 µg/mL; in experiment [22], 0.00352 µg/mL. Also, the Kd in [13] was at most 1 pM; in [14] it was 537 pM; in [19] it was 87.4 pM; in [20] it was 862 pM. The half-maximal effective concentration (EC50 (read off the curve)) in experiment [21] was about 7 µg/mL.

B6: S2X259 Fab (Fab, V domains shown)
VH: QVQLVQSGAEVKKPGSSVKVSCKASGGIFNTYTISWVRQAPGQGLEWMGRIILMSGMANYAQKIQGRVTITADKSTSTAYMELTSLRSDDTAVYYCARGFNGNYYGWGDDDAFDISGQGTLVTVYS
VL: QTVLTQPPSVSGAPGQRVTISCTGSNSNIGAGYDVHWYQQLPGTAPKLLICGNSNRPSGVPDRFSGSKSGTSASLAITGLQAEDEADYYCQSYDSSLSGPNWVFGGGTKLTVL
Regarding B6, the Kd worked out at 80 pM in experiment [24] and 1600 pM in experiment [25].

B7: S2D60 (antibody, V domains shown)
VH: EVQLVQSGPEVKKPGTSVKVSCKASGFTFMSSAVQWVRQARGQRLEWIGWIVVGSGNTNYTQKFRERVTITRDMSTSTAYMELSSLRSEDTAVYYCAAPRCSGGSCHDGFDIWGQGTMVTVSS
VL: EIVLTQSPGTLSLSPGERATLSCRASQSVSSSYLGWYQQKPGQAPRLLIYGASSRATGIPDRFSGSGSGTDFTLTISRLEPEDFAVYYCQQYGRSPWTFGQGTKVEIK
For B7, in experiment [26], the “neutralization IC50” value amounted to 0.012 µg/mL, the “neutralization IC80” value is 0.04 µg/mL, the “neutralization IC90” value amounted to 0.084 µg/mL and the “neutralization IC95” value stood at 0.164 µg/mL. Further, in [27], the binding result is listed as “no binding”. In [28], the “EC50 (read off the curve)” value is about 0.1 µg/mL.

B8: S2F1 (antibody, V domains shown)
VH: EVQLLESGGGLVQPGGSLRLSCAGSGFSVSNHAMSWVRQAPGKGLEWVSAIGGSDSTTYYADSVKGRFAISRDNSKNTLYLQMNSLRADDTAIYYCAKDNYTSTWFPFDYWGQGTQVIVSS
VL: DVVMTQSPLSLPVTLGQPASISCRSSHSLVHGDGNTYLNWFQQRPGQSPRRLIHKVSNRDSGVPDRFSGSGSGTDFTLKISRVEAEDVGVYYCMQGSYWPPWTFGQGTKVEIN
As to B8, the binding result in experiment [29] is “binds”.
